In this assay the target is T1, recombinant mouse sortilin (mouse, UniProt Q6PHU5 74-754).
T1 chain: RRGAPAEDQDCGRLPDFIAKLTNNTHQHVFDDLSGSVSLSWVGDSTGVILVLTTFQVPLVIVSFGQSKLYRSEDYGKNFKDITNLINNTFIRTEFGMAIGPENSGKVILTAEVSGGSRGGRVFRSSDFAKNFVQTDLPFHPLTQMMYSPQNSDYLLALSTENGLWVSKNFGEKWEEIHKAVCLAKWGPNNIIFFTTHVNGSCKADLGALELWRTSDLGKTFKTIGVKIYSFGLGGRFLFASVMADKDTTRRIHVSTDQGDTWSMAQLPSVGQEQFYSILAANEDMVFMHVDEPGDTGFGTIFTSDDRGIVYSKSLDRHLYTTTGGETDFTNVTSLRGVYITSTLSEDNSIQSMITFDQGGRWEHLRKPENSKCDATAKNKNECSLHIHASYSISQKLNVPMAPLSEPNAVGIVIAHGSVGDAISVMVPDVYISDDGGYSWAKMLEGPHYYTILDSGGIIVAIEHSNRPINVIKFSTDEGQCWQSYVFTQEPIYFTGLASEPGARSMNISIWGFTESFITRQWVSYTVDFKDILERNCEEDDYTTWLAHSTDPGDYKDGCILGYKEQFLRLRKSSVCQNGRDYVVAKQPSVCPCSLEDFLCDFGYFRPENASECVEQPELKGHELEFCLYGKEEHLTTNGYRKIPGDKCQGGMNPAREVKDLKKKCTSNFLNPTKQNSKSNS
Briefly: SPR. On the technique in general: Surface plasmon resonance follows binding to a sensor surface in real time, without labels.

The Kd is the equilibrium constant for the complex coming apart.

B1: recombinant IL-6 (ligand)
chain: FPTSQVRRGDFTEDTTPNRPVYTTSQVGGLITHVLWEIVEMRKELCNGNSDCMNNDDALAENNLKLPEIQRNDGCYQTGYNQEICLLKISSGLLEYHSYLEYMKNNLKDNKKDKARVLQRDTETLIHIFNQEVKDLHKIVLPTPISNALLTDKLESQKEWLRTKTIQFILKSLEEFLKVTLRSTRQT
Consider B1, for which the dissociation constant Kd was found to be 1100 nM.

B2: recombinant IL-10 (ligand)
chain: SRGQYSREDNNCTHFPVGQSHMLLELRTAFSQVKTFFQTKDQLDNILLTDSLMQDFKGYLGCQALSEMIQFYLVEVMPQAEKHGPEIKEHLNSLGEKLKTLRMRLRRCHRFLPCENKSKAVEQVKSDFNKLQDQGVYKAMNEFDIFINCIEAYMMIKMKS
B2: the Kd is 287 nM.

B3: GST-fused mouse IFN-α (ligand)
chain: CDLPHTYNLRNKRALKVLAQMRRLPFLSCLKDRQDFGFPLEKVDNQQIQKAQAIPVLRDLTQQTLNLFTSKASSAAWNATLLDSFCNDLHQQLNDLQTCLMQQVGVQEPPLTQEDALLAVRKYFHRITVYLREKKHSPCAWEVVRAEVWRALSSSVNLLPRLSEEKE
In the case of B3, the Kd was determined as 550 nM.

B4: recombinant IL-17A (ligand)
chain: AAIIPQSSACPNTEAKDFLQNVKVNLKVFNSLGAKVSSRRPSDYLNRSTSPWTLHRNEDPDRYPSVIWEAQCRHQRCVNAEGKLDHHMNSVLIQQEILVLKREPESCPFTFRVEKMLVGVGCTCVASIVRQAA
Regarding B4, the Kd came to 335 nM.

B5: recombinant IL-12 (complex)
chain 1: RVIPVSGPARCLSQSRNLLKTTDDMVKTAREKLKHYSCTAEDIDHEDITRDQTSTLKTCLPLELHKNESCLATRETSSTTRGSCLPPQKTSLMMTLCLGSIYEDLKMYQTEFQAINAALQNHNHQQIILDKGMLVAIDELMQSLNHNGETLRQKPPVGEADPYRVKMKLCILLHAFSTRVVTINRVMGYLSSA
chain 2: MWELEKDVYVVEVDWTPDAPGETVNLTCDTPEEDDITWTSDQRHGVIGSGKTLTITVKEFLDAGQYTCHKGGETLSHSHLLLHKKENGIWSTEILKNFKNKTFLKCEAPNYSGRFTCSWLVQRNMDLKFNIKSSSSSPDSRAVTCGMASLSAEKVTLDQRDYEKYSVSCQEDVTCPTAEETLPIELALEARQQNKYENYSTSFFIRDIIKPDPPKNLQMKPLKNSQVEVSWEYPDSWSTPHSYFSLKFFVRIQRKKEKMKETEEGCNQKGAFLVEKTSTEVQCKGGNVCVQAQDRYYNSSCSKWACVPCRVRS
As to B5, the Kd amounted to 13.6 nM.

B6: recombinant IFN-γ (ligand)
chain: HGTVIESLESLNNYFNSSGIDVEEKSLFLDIWRNWQKDGDMKILQSQIISFYLRLFEVLKDNQAISNNISVIESHLITTFFSNSKAKKDAFMSIAKFEVNNPQVQRQAFNELIRVVHQLLPESSLRKRKRSRC
For B6, the Kd is 2600 nM.

Source of the values: paper PMC4879639 (2016).
